Consider one sequence from patent US10921324B2, “Compositions and methods related to the methylation of histone H1.0 protein” (Aelan Cell Technologies, Inc., priority 2016, dated 2021).

Ends that are not written are not given here.

The test has as its target T1, GLP methyltransferase (Homo sapiens, UniProt Q9H9B1).
T1 construct: purchased Cayman Chemical 10755
T1 sequence (Q9H9B1 1-1298): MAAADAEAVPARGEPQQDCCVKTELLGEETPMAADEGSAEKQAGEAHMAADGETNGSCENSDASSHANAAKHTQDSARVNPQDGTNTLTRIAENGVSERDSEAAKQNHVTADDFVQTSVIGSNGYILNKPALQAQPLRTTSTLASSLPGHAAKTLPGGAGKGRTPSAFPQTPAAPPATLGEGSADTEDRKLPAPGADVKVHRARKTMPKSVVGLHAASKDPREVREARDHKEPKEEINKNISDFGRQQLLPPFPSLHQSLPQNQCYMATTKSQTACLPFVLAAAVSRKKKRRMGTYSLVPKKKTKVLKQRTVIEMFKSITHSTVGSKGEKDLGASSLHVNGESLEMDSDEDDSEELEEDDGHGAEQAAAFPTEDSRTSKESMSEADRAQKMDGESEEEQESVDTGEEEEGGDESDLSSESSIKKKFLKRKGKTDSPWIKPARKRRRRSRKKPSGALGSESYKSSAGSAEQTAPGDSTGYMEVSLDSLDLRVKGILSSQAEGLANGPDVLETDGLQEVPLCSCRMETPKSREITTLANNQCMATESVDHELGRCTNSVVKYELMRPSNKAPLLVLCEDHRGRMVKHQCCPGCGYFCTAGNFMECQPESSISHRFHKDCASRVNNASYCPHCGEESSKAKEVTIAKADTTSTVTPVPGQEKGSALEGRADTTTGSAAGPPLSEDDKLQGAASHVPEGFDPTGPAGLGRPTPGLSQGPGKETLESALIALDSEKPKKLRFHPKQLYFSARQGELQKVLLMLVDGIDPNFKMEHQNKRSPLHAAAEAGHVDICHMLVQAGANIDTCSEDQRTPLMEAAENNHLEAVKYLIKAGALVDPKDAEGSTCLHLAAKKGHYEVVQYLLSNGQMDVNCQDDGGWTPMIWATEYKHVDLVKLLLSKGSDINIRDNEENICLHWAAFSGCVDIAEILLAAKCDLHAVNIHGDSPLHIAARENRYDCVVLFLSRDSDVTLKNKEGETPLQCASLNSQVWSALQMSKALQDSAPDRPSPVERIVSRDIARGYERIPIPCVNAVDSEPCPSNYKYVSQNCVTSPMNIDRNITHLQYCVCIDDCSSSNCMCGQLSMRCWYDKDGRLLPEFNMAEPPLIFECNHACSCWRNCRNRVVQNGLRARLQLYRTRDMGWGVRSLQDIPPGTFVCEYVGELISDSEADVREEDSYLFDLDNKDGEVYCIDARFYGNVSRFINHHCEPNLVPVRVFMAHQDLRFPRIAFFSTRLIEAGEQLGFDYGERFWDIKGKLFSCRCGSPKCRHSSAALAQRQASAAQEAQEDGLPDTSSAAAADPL
Put plainly: In vitro methylation of unmodified H1.0 peptide with GLP, products by LC-MS. It is filed as biochemical. As to conditions: LC-MS spectral counts; 10U GLP, 3.2 mM S-Adenosyl-L-Methionine, 37° C. 1 hour. The method, then: In order to identify the precise sites of methylation by G9A and GLP methyltransferases on histone H1.0, in vitro methylation assays were performed and subsequently analyzed by Liquid Chromatography and High-resolution Mass Spectrometry (LC-MS) analysis. Methylation reactions were set up using either G9A methyltransferase (NEB, M0235S, Lot #0031201) or GLP methyltransferase (Cayman Chemical, 10755). The methyl donor in each reaction was unlabeled S-Adenosyl-L-Methionine (NEB, B9003S). […]
For the Liquid Chromatography and High-resolution Mass Spectrometry (LC-MS) analysis, samples were prepared as described above and about 1 μg o the product was injected onto a Thermo Scientific Easy nLC system configured with a 10 cm×100 um trap column and a 25 cm×100 um ID resolving column. […] This ensured optimal full-scan data for quantification. […]
Protein identification was performed using Thermo Scientific Proteome Discoverer version 1.4 (including Sequest and Percolator algorithms) using RefSeqHuman sequence database. […] Protein quantification was performed using Pinpoint version 1.4 software. The Pinpoint quantification workflow included importing the Proteome Discoverer .msf files as spectral libraries. Identified peptides were subsequently quantified in MS .raw files using the Pinpoint peak finding, chromatographic alignment and area calculation algorithms. […]

As for “AKPVKASKPKKAKPVKPK (not fully specified (N-terminus); listed as Homo sapiens) [unmethylated H1.0 peptide, unmodified H1.0 peptide substrate for in vitro methylation]”, the “H1.0K180 dimethylated, % of all peptides” value is 96.6%.
